According to paper PMC10850148:

What was measured:
[1] = biological target: AtGATA18 ZnF domain (UniProt Q8LC79); assay: ITC
[2] = biological target: AtSPL5 ZnF domain (residues 60-124) (UniProt Q9S758); assay: ITC
[3] = biological target: AtGATA18 ZnF domain (Arabidopsis thaliana) (UniProt Q8LC79); assay: ITC
[4] = biological target: MqGATA triple mutant (Y-R, M-K, N-R) (Macrosteles quadrilineatus); assay: ITC
[5] = biological target: AtSPL5 ZnF domain (residues 60-124) (Arabidopsis thaliana) (UniProt Q9S758); assay: ITC
[6] = biological target: AtGATA18 ZnF domain (Arabidopsis thaliana) (UniProt Q8LC79); assay: ITC; MicroCal PEAQ-ITC, 16 °C, 20 mM Tris-HCl pH 7.5, 150 mM NaCl; 660-700 μM protein injected into 40-50 μM protein in the cell; SAP05 titrated to the transcription factor; one-site model
[7] = biological target: AtSPL5 ZnF domain (residues 60-124) (Arabidopsis thaliana) (UniProt Q9S758); assay: as above
[8] = biological target: T1, OY-M SAP05 (residues 33-135); assay: ITC; conditions: chain shown with the change
T1 chain: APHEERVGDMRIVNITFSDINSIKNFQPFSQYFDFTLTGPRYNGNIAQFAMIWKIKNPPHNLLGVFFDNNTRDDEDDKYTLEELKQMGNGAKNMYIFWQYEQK

Molecule | Kd [1] | Kd [8] | also measured
OY-M SAP05 (residues 33-135) D108A | 5400 nM |  | 
OY-M SAP05 (residues 33-135) D106A | 4000 nM |  | 
OY-M SAP05 (residues 33-135) E107A | 1300 nM |  | Kd [2]: 6300 nM
OY-M SAP05 (residues 33-135) (domain or fragment) |  |  | Kd [3]: 140 nM; Kd [4]: 900 nM; Kd [5]: 420 nM
WBDLa SAP05 double mutant M86I-K70T (natural protein) |  |  | Kd [6]: 2700 nM; Kd [7]: 2600 nM
OY-M SAP05 E107A (domain or fragment) |  |  | fold decrease of binding affinity against wild-type SAP05 [7]: 15 fold
OY-M SAP05 (residues 33-135) I84A | > 100000 nM |  | 
binary complex AtRPN10-SAP05 (from UniProt P55034 33-135; P55034 1-193) |  |  | Kd [3]: 100 nM; Kd [5]: 370 nM
AtSPL5 ZnF domain (residues 60-124), Q9S758 S108A (protein) SRLCQVDRCTVNLTEAKQYYRRHRVCEVHAKASAATVAGVRQRFCQQCARFHELPEFDEAKRSCR |  | 1400 nM | 
AtGATA18 ZnF domain, Q8LC79 R182A (protein) GDSLLARRCANCDTTSTPLWRNGPRGPKSLCNACGIAFKKEERRTTAATGNT |  | 4400 nM | 
AtGATA18 ZnF domain, Q8LC79 K185A (protein) GDSLLARRCANCDTTSTPLWRNGPRGPKSLCNACGIRFKAEERRTTAATGNT |  | 580 nM | 
AtGATA18 ZnF domain, Q8LC79 I181A (protein) GDSLLARRCANCDTTSTPLWRNGPRGPKSLCNACGARFKKEERRTTAATGNT |  | 5000 nM | 
AtGATA18 ZnF domain, Q8LC79 R188A (protein) GDSLLARRCANCDTTSTPLWRNGPRGPKSLCNACGIRFKKEEARTTAATGNT |  | 500 nM | 
